± gives the half width of the 95% confidence interval.
Tests used:
[1] = folding stability dG unfold from chymotrypsin proteolysis; higher = more stable
How it was run: (§1)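 Bayesian fitting of sequencing counts gave K50 for each design. Unfolding free energy followed by setting this against a sequence-predicted unfolded-state K50 and a shared folded-state K50, either per protease or with trypsin and chymotrypsin combined. The designs, under 80 residues and lacking cysteine, were digested in a PA-tagged cDNA display format at 11 threefold-diluted protease concentrations and without protease, and only those with AlphaFold2 dimer inter-PAE above 15 were kept.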

[2] = folding stability dG unfold from trypsin proteolysis; higher = more stable
How it was run: as §1

[3] = folding stability dG unfold (combined trypsin and chymotrypsin); higher = more stable
How it was run: as §1

Sequence | folding stability dG unfold [1] [kcal/mol] | folding stability dG unfold [2] [kcal/mol] | folding stability dG unfold [3] [kcal/mol]
SAGGSAGGSAREPPEAELVDERERTRPDGRPYTIAILRNPRDPREYLRIPGLGEWYPLDKLSAGGSAGGSAG [r3_181_TrMRF] | 0.431 ± 0.22 | -0.574 ± 0.28 | 0.126 ± 0.12
SAGGSAGGSARIYVTLPDGTVLEVEFEGEEEAERVAEEIEAELKEKGIEPKSITIEPVSPEEGSAGGSAGGS [r12_301_JUSTAS] | 1.69 ± 0.075 | 0.723 ± 0.053 | 1.27 ± 0.16
SAGGSAGGSARRDEVVERARERLLEEHPDLKPGETATVVVRDPETDEVYVFRFDGDGRVYGSAGGSAGGSAG [r3_441_TrMRF] | 1.59 ± 0.11 | 0.59 ± 0.09 | 1.31 ± 0.16
SAGGSAGGSASAEEEARRLAPEGKLVYKITKGNETTIVALTPEEAEALKKKNPDVEIEPILLSAGGSAGGSA [r18_198_JUSTAS] | 3.176 ± 0.021 | 1.37 ± 0.035 | 2.81 ± 0.087
SAGGSAGGSASAEIVPLTLTFPVKFKKDPNGKTKEKTVEVKIELYVIRDPNGNLYTIAKISLSAGGSAGGSA [r18_284_TrMRF] | 4.24 ± 0.089 | 3.01 ± 0.14 | 3.98 ± 0.15
SAGGSAGGSASFTTTPVQFPDNTRVTTVTLDPETGTTIATVTSPSATSLVTIPGDTTTLTGSSAGGSAGGSA [r18_212_JUSTAS] | -0.246 ± 0.087 | 0.551 ± 0.023 | 0.286 ± 0.045
SAGGSAGGSASIEITVKTKEEAKALAEALAKAGLVEVETLPDGSVKITVKPVKVEEVLKPPESAGGSAGGSA [r18_126_TrROS_Hall] | 2.61 ± 0.22 | 1.66 ± 0.096 | 2.17 ± 0.29
SAGGSAGGSASIPELAEELGLPAEVEVTEDVEPEKPVVYPVVVREPGGGEVRVVPVVLPPGVSAGGSAGGSA [r18_313_JUSTAS] | 1.36 ± 0.043 | -0.223 ± 0.14 | 0.922 ± 0.16
SAGGSAGGSASITFMLMKFDPEDNRVEVYTYKIKIERDPNGLKKFKIEPVKRQRINPDDLKAISAGGSAGGS [r12_374_TrROS] | 3.48 ± 0.09 | 2.13 ± 0.12 | 2.98 ± 0.25
SAGGSAGGSASKNGKELEIKIKVDIYPFPGWGIVRVDYEIEYPDGKEQKFDLWIPVPPGDASAGGSAGGSAG [r3_330_TrROS] | 1.64 ± 0.088 | 1.65 ± 0.11 | 1.66 ± 0.17
SAGGSAGGSASKPYTITLPGNYRIEVYELPDGTYLARIYFPDKPGYYALALLTDNSIYIFPSAGGSAGGSAG [r3_170_TrMRF] | 3.691 ± 0.019 | 3.05 ± 0.07 | 3.47 ± 0.068
SAGGSAGGSASLEEIKERAREEILKKHPDLPPDEPLTVTVKDPNSSNEYTITFNADGTVVESAGGSAGGSAG [r3_441_JUSTAS] | 0.814 ± 0.052 | 0.677 ± 0.027 | 0.837 ± 0.098
SAGGSAGGSASMTSSVSTSLNPDNPPVVLVTTTYPDGTVTLTVKDLSTGTTTSTTTTPLPSSAGGSAGGSAG [r3_299_JUSTAS] | 0.589 ± 0.043 | 1.17 ± 0.042 | 0.893 ± 0.059
SAGGSAGGSASMTTLEIEIELDESDIEKVKEELKKELPKNVKVIIHAYDKNGNIIEEIEIEFSAGGSAGGSA [r18_188_JUSTAS] | 1.61 ± 0.097 | 1.33 ± 0.036 | 1.6 ± 0.17
SAGGSAGGSASNPKIISVENLGNYTVVLAEDPEDGSLVLVVINPDNNSALVFKDNKPVAVFSAGGSAGGSAG [r3_297_TrMRF] | 1.66 ± 0.11 | 1.33 ± 0.025 | 1.45 ± 0.13
SAGGSAGGSASPAPDTLYVPVVFDVVFPLPDGSYVLVPVLAYYQLPGGTLLASVRFAVTFDSAGGSAGGSAG [r3_484_TrMRF] | 4.28 ± 0.098 | 2.77 ± 0.16 | 3.86 ± 0.2
SAGGSAGGSASPIHATVSVDPETGTYTVHYPDGSTKTITGLSPEEVAALAKEMGIDEITLESAGGSAGGSAG [r3_78_JUSTAS] | 2.64 ± 0.034 | 3 ± 0.08 | 2.81 ± 0.044
SAGGSAGGSASPRTYKYKFTIKYPDGSTSEYEIVDEEDKAKEKIKKEYGAEEIELEIEPEESAGGSAGGSAG [r3_220_JUSTAS] | 1.39 ± 0.19 | -0.218 ± 0.41 | 0.637 ± 0.28
SAGGSAGGSASPSYLLTVTVYRPGGNPLSRRVFPPSVSPAEVEAWLATLPSDYSWEVSREPVSAGGSAGGSA [r18_431_JUSTAS] | 2.95 ± 0.022 | 0.957 ± 0.051 | 2.59 ± 0.048
SAGGSAGGSASSTLRTVRFPPDTPLEEVKEALAAEFPDRDPNIKILEVRPEDGGLVVTVEVVSAGGSAGGSA [r18_360_JUSTAS] | 1.58 ± 0.031 | 1.51 ± 0.033 | 1.62 ± 0.057
SAGGSAGGSASVVVTKETLPNGETRITTTTTTTTTVTVYDNNETVTTTTTTTTTTVVPKSLLSAGGSAGGSA [r18_34_JUSTAS] | 1.66 ± 0.039 | 0.601 ± 0.055 | 1.38 ± 0.084

Sequence | folding stability dG unfold [1] [kcal/mol] | folding stability dG unfold [2] [kcal/mol] | folding stability dG unfold [3] [kcal/mol]
SAGGSAGGSATIYIIMPPDDPIPPNMPIRLPDGKPVRIDVEPVPLEEDGGPIFRIEVEPGATSAGGSAGGSA [r18_476_TrROS] | 0.0617 ± 0.21 | -0.181 ± 0.12 | -0.03 ± 0.16
SAGGSAGGSATLTIDELRELLEKLGIDVEELSEEEIAELLKKLYPNARVERNENGELTIHPSAGGSAGGSAG [r3_375_TrROS_Hall] | 2.77 ± 0.12 | 3.34 ± 0.096 | 2.99 ± 0.14
SAGGSAGGSATPPDSSVSVKVEITVGGEKKLVTATLTTLPNGTTSLTLNFDIPPDKYELSLVSAGGSAGGSA [r18_428_JUSTAS] | 2.74 ± 0.09 | 2.52 ± 0.11 | 2.51 ± 0.15
SAGGSAGGSATQTIPFENPDGHPWTGTVEKRPDGMVKIDLTFPGGEKKEFYIPPGEEIRLPFSAGGSAGGSA [r18_115_TrROS] | 0.0335 ± 0.24 | 0.775 ± 0.057 | 0.42 ± 0.19
SAGGSAGGSATTIEITLPDGTKAVTLSTTSENSILLLVTAPDSPSLGFIDKNNPNNIILLKSAGGSAGGSAG [r3_450_JUSTAS] | 0.623 ± 0.1 | 0.467 ± 0.054 | 0.627 ± 0.093
SAGGSAGGSATVKIVETKVGADGAVYTTALVTLPNGGVLIVKTKTYPSGESETSVTLTSGKEFSAGGSAGGS [r12_995_TrMRF] | 1.74 ± 0.045 | 2.21 ± 0.081 | 2 ± 0.071
SAGGSAGGSAVITTETGGDSTVTTTTSLTGEGGTLTTTTTTTTTDGTTTTTTTTTDTGLSPTSSAGGSAGGS [r12_769_JUSTAS] | 1.99 ± 0.024 | 2.41 ± 0.062 | 2.16 ± 0.034
SAGGSAGGSAVVTLSPDGRRITITSRTVTYFKVTNTDDIAIETSVETVVTPLPSLGSPEVLASAGGSAGGSA [r18_6_JUSTAS] | 2.1 ± 0.098 | 3.04 ± 0.13 | 2.56 ± 0.28
SAGGSAGGSAWIPAKEIAKEIKAEYPPGKEREFRFPEEGWWIRIQVNKEGKPKVKVVPPEDISAGGSAGGSA [r18_61_TrROS] | 0.18 ± 0.17 | 0.103 ± 0.19 | 0.109 ± 0.16
SAGGSAGGSAWITINDVRDYLKKEGIDPKNMSAEEIASEFKDKWPNVNIEAQPNGSAWIKPSAGGSAGGSAG [r3_375_TrROS] | 0.535 ± 0.36 | 0.785 ± 0.054 | 0.814 ± 0.14
SAGGSAGGSAWMYRIKIEIYSNGKKHKYEFWIPEDNIDEVADQLPPGYKIKITDIEPWEPNSAGGSAGGSAG [r3_195_TrROS] | 2.73 ± 0.049 | 1.82 ± 0.022 | 2.46 ± 0.14
SAGGSAGGSAYIPAEEIAEEVAAVLPPDEVALFPLPEKPLVVLVVREEDGVPRVLVLPPELASAGGSAGGSA [r18_61_TrMRF] | 0.367 ± 0.093 | 0.00934 ± 0.069 | 0.261 ± 0.082
SAGGSAGGSAYTINIWVPPGMPKEEAADYIADWLHERHGIPDIKVSVEQDPDGMTKVTITVKSAGGSAGGSA [r18_1_TrROS] | 2.77 ± 0.033 | 2.32 ± 0.14 | 2.52 ± 0.085
SAGGSAGGSAYWRIKIFYPNNGREVTIHVPGSADDILDEAKPQFGYPPDNIKKIKIEPMDNSAGGSAGGSAG [r3_79_TrROS] | 0.783 ± 0.35 | -0.409 ± 0.33 | 0.432 ± 0.21
SAGGSAGGSDETLTVTRGRTETVTVRRVERRPPAAAPPLKVTLSAVLDADGRLVSVSASVELLSAGGSAGGS [r12_727_TrROS_Hall] | 1.88 ± 0.036 | 2.1 ± 0.05 | 1.9 ± 0.15
SAGGSAGGSDGVIQIPIKSDDGEEFKIEIPIEQIKKMMKEGRPIKIWLFDNGKMVRPFEIPIDSAGGSAGGS [r12_991_TrROS] | 1.06 ± 0.15 | 0.428 ± 0.12 | 0.735 ± 0.19
SAGGSAGGSDPLVSFPLEVELPGGEKVELHFIPGPRLVIARFPDRPVLFYTDGDGVITRVDPISAGGSAGGS [r12_47_TrMRF] | -0.362 ± 0.11 | 0.337 ± 0.059 | 0.0465 ± 0.064
SAGGSAGGSDPVPIVITYPDGSTSTTLEPDKIYITYPSKGLKYVVPIDLSTNKISFSLESSLPSAGGSAGGS [r12_539_JUSTAS] | -0.0759 ± 0.11 | -0.699 ± 0.12 | -0.254 ± 0.08
SAGGSAGGSDTVNVKVTVSFPPGTETKEITVNVPVVPGNPDVVKAKVDELAAAFPDAVVTAEKSAGGSAGGS [r12_795_TrMRF] | 1.99 ± 0.095 | 0.294 ± 0.078 | 1.6 ± 0.12
SAGGSAGGSDYLMIWIPPDALKGMPPGQEIEFEIKFNGGEYKVKIKVMPHENGHYMIMITVEPSAGGSAGGS [r12_433_TrROS] | 4.59 ± 0.3 | 3.2 ± 0.35 | 4.06 ± 0.25
SAGGSAGGSEEEVEIKVVEPVDVVVLPDGTVRRTFRVEDGALLVITVHFPPDGNPVGEIEIFPSAGGSAGGS [r20_240_TrMRF] | 1.64 ± 0.04 | 1.56 ± 0.032 | 1.68 ± 0.16
